# Laboratory results reported in article PMC10239968, “[^18F]AlF-NOTA-ADH-1: A new PET molecular radiotracer for imaging of N-cadherin-positive tumors” (Frontiers in Oncology, 2023).
# Where two headings read alike, the source gives them in different places.
# How the values were obtained:
# in vivo = assay: in vivo; design: species or system BALB/c nu/nu mice; settings: female, BALB/c nu/nu, mouse, in vivo, iv, 0.74 MBq (20 uCi) per mouse, total radioactivity
# Experimental: (§1) All animal experiments were performed in accordance with and approved by the Institutional Animal Care and Use Committee guidelines of the First Affiliated Hospital of Zhejiang University School of Medicine. BALB/c nu/nu mice (female, 20 ± 3 g, 4- to 6-week-old; Department of Laboratory Animal Science, Zhejiang University) were used in this study. The SW480 and BxPC3 xenografts were generated, and 5×10^6 tumor cells were subcutaneously injected into the flanks of female athymic nude mice. The PDX-bearing mouse models were established as follows. Pancreatic cancer (diagnosed as pancreatic ductal adenocarcinoma) tissues were obtained from the surgery of a patient. Written informed consent was obtained from the patient, and the research protocol was approved by the Clinical Research Ethics Committee of the First Affiliated Hospital of Zhejiang University School of Medicine. The sample was sectioned into about 1mm^3 pieces, and the tumor tissues were subcutaneously implanted into BALB/c nu/nu mice flanks. Mice were allowed free access to sterile water and food and were kept under strict disease-free conditions with controlled temperature (~25°C), humidity (50-70%), and circadian rhythms (12-hour light/dark cycles). All necessary procedures were carried out to minimize discomfort and avoid the waste of animals. The length and width of the tumor were measured every other day. Biodistribution studies and positron emission tomography in mice were performed after the tumor volume reached 150 to 200 mm^3.
# (§2) The BALB/c nude mice were randomized into different tumor models (SW480, BxPC3, and pancreatic PDX), including 5 mice per group. Each nude mouse was injected with 0.74MBq (20μCi) [^18F]AlF-NOTA-ADH-1 through the caudal vein. Blood was collected from the orbit, and the mice were dissected to collect the brain, heart, lung, liver, liver, spleen, stomach, intestine, muscle, bone and others at 30 min, […], 60min, 90min and 120min after injection. In the blocked group, the study was performed with a saturating dose of ADH-1 (20 mg/kg of mouse body weight) intravenously administered 60min before the intravenous injection of [^18F]AlF-NOTA-ADH-1 in the pancreatic PDX model and SW480 xenograft model. The mice in the tumor xenograft model were sacrificed 1h after [^18F]AlF-NOTA-ADH-1 injection. The nude mice were dissected, and tumor tissues and related tissues (blood, brain, heart, lung, liver, spleen, kidney, stomach, intestine, muscle and bone) were weighed, and their radioactivity was measured by γ-counter. The radioactivity results were recorded as % ID/g.
# [1] = test system: pancreatic PDX tumor xenografts; assay: in vivo; design: species or system BALB/c nu/nu mice; settings: PDX xenograft nude mice, n=5, mean±SD
# Experimental: as §1, §2
# [2] = type: physicochemical
# Experimental: The partition coefficient of [^18F]AlF-NOTA-ADH-1 was measured by assessing the distribution of radioactivity in 1-octanol and phosphate buffer in a 2 mL centrifuge tube. 20µL of [^18F]AlF-NOTA-ADH-1 solution was added to a tube containing 0.5 mL each of 1-octanol and PBS. The mixture was vortexed and centrifuged (5,000 r/min) for 5 min. A total of 2 samples (50 μL) were collected from each layer and were assayed in a γ counter. Partition coefficients (log Po/w) are shown as the log counts in 1-octanol vs. PBS layers (n=3).
# SW480 tumor xenografts = type: in vivo, BALB/c nu/nu mice; settings: SW480 xenograft nude mice, n=5, mean±SD
# Experimental: as §1, §2
# [3] = blocking (ADH-1 20 mg/kg i.v. 60min before), 60min p.i.
structure (smiles),measurement,setting,value
CC(=O)N[C@H]1CSSC[C@@H](C(=O)NCCNC(=O)CN2CCN(CC(=O)O)CCN(CC(=O)O)CC2)NC(=O)[C@H](C(C)C)NC(=O)[C@H](C)NC(=O)[C@H](Cc2c[nH]cn2)NC1=O [[^18F]AlF-NOTA-ADH-1],tissue uptake at 0.5 h,in vivo; Blood uptake,0.69 ± 0.22 %ID/g
same,tissue uptake at 1 h,in vivo; Blood uptake,0.4 ± 0.18 %ID/g
same,tissue uptake at 1.5 h,in vivo; Blood uptake,0.39 ± 0.11 %ID/g
same,tissue uptake at 2 h,in vivo; Blood uptake,0.41 ± 0.07 %ID/g
same,tissue uptake at 0.5 h,in vivo; Bone uptake,1.74 ± 0.81 %ID/g
same,tissue uptake at 1 h,in vivo; Bone uptake,2.29 ± 0.96 %ID/g
same,tissue uptake at 1.5 h,in vivo; Bone uptake,1.65 ± 1.3 %ID/g
same,tissue uptake at 2 h,in vivo; Bone uptake,0.74 ± 0.35 %ID/g
same,tissue uptake at 0.5 h,in vivo; Brain uptake,0.62 ± 0.14 %ID/g
same,tissue uptake at 1 h,in vivo; Brain uptake,0.99 ± 0.47 %ID/g
same,tissue uptake at 1.5 h,in vivo; Brain uptake,0.63 ± 0.18 %ID/g
same,tissue uptake at 2 h,in vivo; Brain uptake,0.51 ± 0.27 %ID/g
same,tissue uptake at 0.5 h,in vivo; Heart uptake,2.54 ± 0.97 %ID/g
same,tissue uptake at 1 h,in vivo; Heart uptake,0.96 ± 0.17 %ID/g
same,tissue uptake at 1.5 h,in vivo; Heart uptake,0.95 ± 0.25 %ID/g
same,tissue uptake at 2 h,in vivo; Heart uptake,0.81 ± 0.28 %ID/g
same,tissue uptake at 0.5 h,in vivo; Intestines uptake,3.82 ± 0.12 %ID/g
same,tissue uptake at 1 h,in vivo; Intestines uptake,2.14 ± 0.04 %ID/g
same,tissue uptake at 1.5 h,in vivo; Intestines uptake,3.93 ± 2.67 %ID/g
same,tissue uptake at 2 h,in vivo; Intestines uptake,2.53 ± 2 %ID/g
same,tissue uptake at 1 h,in vivo; Muscle uptake,1.56 ± 0.07 %ID/g
same,tissue uptake at 1.5 h,in vivo; Muscle uptake,2.03 ± 0.05 %ID/g
same,tissue uptake at 2 h,in vivo; Muscle uptake,1.18 ± 0.6 %ID/g
same,tissue uptake at 0.5 h,in vivo; Skin uptake,0.11 ± 0.04 %ID/g
same,tissue uptake at 1 h,in vivo; Skin uptake,0.95 ± 0.46 %ID/g
same,tissue uptake at 1.5 h,in vivo; Skin uptake,1.51 ± 0.02 %ID/g
same,tissue uptake at 2 h,in vivo; Skin uptake,1.56 ± 0.66 %ID/g
same,tissue uptake at 0.5 h,in vivo; Stomach uptake,3.23 ± 1.69 %ID/g
same,tissue uptake at 1 h,in vivo; Stomach uptake,3.4 ± 0.12 %ID/g
same,tissue uptake at 1.5 h,in vivo; Stomach uptake,6.16 ± 1.58 %ID/g
same,tissue uptake at 2 h,in vivo; Stomach uptake,1.6 ± 1.04 %ID/g
same,T/Blood ratio,[1]; [3],9.39± 0.10
same,T/Muscle ratio,[1]; [3],2.12±0.06
same,Tumor uptake,[1]; [3],3.75±0.07 %ID/g
same,T/Blood ratio,"[1]; non-blocking, 30min p.i.",10.72± 1.02
same,T/Muscle ratio,"[1]; non-blocking, 30min p.i.",5.69±0.72
same,Tumor uptake,"[1]; non-blocking, 30min p.i.",8.04±1.82 %ID/g
same,T/Blood ratio,"[1]; non-blocking, 60min p.i.",19.21± 2.20
same,T/Muscle ratio,"[1]; non-blocking, 60min p.i.",8.70±2.68
same,Tumor uptake,"[1]; non-blocking, 60min p.i.",10.76±2.16 %ID/g
same,T/Blood ratio,"[1]; non-blocking, 90min p.i.",13.54± 0.35
same,T/Muscle ratio,"[1]; non-blocking, 90min p.i.",4.15±1.86
same,Tumor uptake,"[1]; non-blocking, 90min p.i.",7.18±0.53 %ID/g
same,T/Blood ratio,"[1]; non-blocking, 120min p.i.",10.27±1.36
same,T/Muscle ratio,"[1]; non-blocking, 120min p.i.",3.97±1.56
same,Tumor uptake,"[1]; non-blocking, 120min p.i.",4.93±1.65 %ID/g
same,Partition coefficient (log Po/w),[2],-2.45 ± 0.09
same,T/Blood ratio,SW480 tumor xenografts; [3],3.96±0.33
same,T/Muscle ratio,SW480 tumor xenografts; [3],1.03±0.56
same,Tumor uptake,SW480 tumor xenografts; [3],1.07±0.57 %ID/g
same,T/Blood ratio,"SW480 tumor xenografts; non-blocking, 30min p.i.",5.77±0.13
same,T/Muscle ratio,"SW480 tumor xenografts; non-blocking, 30min p.i.",1.75±0.47
same,Tumor uptake,"SW480 tumor xenografts; non-blocking, 30min p.i.",1.73±0.11 %ID/g
same,T/Blood ratio,"SW480 tumor xenografts; non-blocking, 60min p.i.",7.42±1.01
same,T/Muscle ratio,"SW480 tumor xenografts; non-blocking, 60min p.i.",1.91±0.69
same,Tumor uptake,"SW480 tumor xenografts; non-blocking, 60min p.i.",2.08±1.64 %ID/g
same,T/Blood ratio,"SW480 tumor xenografts; non-blocking, 90min p.i.",9.6±0.76
same,T/Muscle ratio,"SW480 tumor xenografts; non-blocking, 90min p.i.",1.23±0.92
same,Tumor uptake,"SW480 tumor xenografts; non-blocking, 90min p.i.",0.96±0.15 %ID/g
same,T/Blood ratio,"SW480 tumor xenografts; non-blocking, 120min p.i.",6.08±0.35
same,T/Muscle ratio,"SW480 tumor xenografts; non-blocking, 120min p.i.",0.86±0.23
same,Tumor uptake,"SW480 tumor xenografts; non-blocking, 120min p.i.",0.73±0.67 %ID/g
